The record followed here is IntAct's records for PubMed 19015526.

Sequences and labels used below:
B1: Ribonucleoside-diphosphate reductase subunit M2 B (Homo sapiens), Q7LG56-1 (parent)
chain: MGDPERPEAAGLDQDERSSSDTNESEIKSNEEPLLRKSSRRFVIFPIQYPDIWKMYKQAQASFWTAEEVDLSKDLPHWNKLKADEKYFISHILAFFAASDGIVNENLVERFSQEVQVPEARCFYGFQILIENVHSEMYSLLIDTYIRDPKKREFLFNAIETMPYVKKKADWALRWIADRKSTFGERVVAFAAVEGVFFSGSFAAIFWLKKRGLMPGLTFSNELISRDEGLHCDFACLMFQYLVNKPSEERVREIIVDAVKIEQEFLTEALPVGLIGMNCILMKQYIEFVADRLLVELGFSKVFQAENPFDFMENISLEGKTNFFEKRVSEYQRFAVMAETTDNVFTLDADF

This assay covers variants of B1. The conditions noted are these: with atm_human ATM.
With MGDPERPEAAGLDQDERSSSDTNESEIKSNEEPLLRKSSRRFVIFPIQYPDIWKMYKQAQASFWTAEEVDLAKDLPHWNKLKADEKYFISHILAFFAASDGIVNENLVERFSQEVQVPEARCFYGFQILIENVHSEMYSLLIDTYIRDPKKREFLFNAIETMPYVKKKADWALRWIADRKSTFGERVVAFAAVEGVFFSGSFAAIFWLKKRGLMPGLTFSNELISRDEGLHCDFACLMFQYLVNKPSEERVREIIVDAVKIEQEFLTEALPVGLIGMNCILMKQYIEFVADRLLVELGFSKVFQAENPFDFMENISLEGKTNFFEKRVSEYQRFAVMAETTDNVFTLDADF [S72A], the “effect of a mutation on the interaction” value is listed as “decreasing interaction”.
